Literature values, collected in paper PMC3310390.
Where two headings read alike, the source gives them in different places. Each block holds one substance with its values, some of them ahead of it.

What was measured:
[1] = biological target: Sir3 (Saccharomyces cerevisiae) (UniProt P06701)
[2] = biological target: Sir3 (Saccharomyces cerevisiae) (UniProt P06701); remark: listed apart in the source
[3] = biological target: Sir3 (Saccharomyces cerevisiae) (UniProt P06701); remark: listed apart in the source

- Kd [1]: 60 nM
Substance: Sir2 (from UniProt P06700)

- Kd [2]: 0.03 nM
Substance: Sir2/Sir4 complex (from UniProt P06700)

- Kd [3]: 2 nM
Substance: Sir3 (from UniProt P06701)
